Test results: IntAct's records for PubMed 16946707

B1: Dynamin-1 (Homo sapiens), Q05193 (parent)
chain: MGNRGMEDLIPLVNRLQDAFSAIGQNADLDLPQIAVVGGQSAGKSSVLENFVGRDFLPRGSGIVTRRPLVLQLVNATTEYAEFLHCKGKKFTDFEEVRLEIEAETDRVTGTNKGISPVPINLRVYSPHVLNLTLVDLPGMTKVPVGDQPPDIEFQIRDMLMQFVTKENCLILAVSPANSDLANSDALKVAKEVDPQGQRTIGVITKLDLMDEGTDARDVLENKLLPLRRGYIGVVNRSQKDIDGKKDITAALAAERKFFLSHPSYRHLADRMGTPYLQKVLNQQLTNHIRDTLPGLRNKLQSQLLSIEKEVEEYKNFRPDDPARKTKALLQMVQQFAVDFEKRIEGSGDQIDTYELSGGARINRIFHERFPFELVKMEFDEKELRREISYAIKNIHGIRTGLFTPDMAFETIVKKQVKKIREPCLKCVDMVISELISTVRQCTKKLQQYPRLREEMERIVTTHIREREGRTKEQVMLLIDIELAYMNTNHEDFIGFANAQQRSNQMNKKKTSGNQDEILVIRKGWLTINNIGIMKGGSKEYWFVLTAENLSWYKDDEEKEKKYMLSVDNLKLRDVEKGFMSSKHIFALFNTEQRNVYKDYRQLELACETQEEVDSWKASFLRAGVYPERVGDKEKASETEENGSDSFMHSMDPQLERQVETIRNLVDSYMAIVNKTVRDLMPKTIMHLMINNTKEFIFSELLANLYSCGDQNTLMEESAEQAQRRDEMLRMYHALKEALSIIGDINTTTVSTPMPPPVDDSWLQVQSVPAGRRSPTSSPTPQRRAPAVPPARPGSRGPAPGPPPAGSALGGAPPVPSRPGASPDPFGPPPQVPSRPNRAPPGVPSRSGQASPSRPESPRPPFDL
partner: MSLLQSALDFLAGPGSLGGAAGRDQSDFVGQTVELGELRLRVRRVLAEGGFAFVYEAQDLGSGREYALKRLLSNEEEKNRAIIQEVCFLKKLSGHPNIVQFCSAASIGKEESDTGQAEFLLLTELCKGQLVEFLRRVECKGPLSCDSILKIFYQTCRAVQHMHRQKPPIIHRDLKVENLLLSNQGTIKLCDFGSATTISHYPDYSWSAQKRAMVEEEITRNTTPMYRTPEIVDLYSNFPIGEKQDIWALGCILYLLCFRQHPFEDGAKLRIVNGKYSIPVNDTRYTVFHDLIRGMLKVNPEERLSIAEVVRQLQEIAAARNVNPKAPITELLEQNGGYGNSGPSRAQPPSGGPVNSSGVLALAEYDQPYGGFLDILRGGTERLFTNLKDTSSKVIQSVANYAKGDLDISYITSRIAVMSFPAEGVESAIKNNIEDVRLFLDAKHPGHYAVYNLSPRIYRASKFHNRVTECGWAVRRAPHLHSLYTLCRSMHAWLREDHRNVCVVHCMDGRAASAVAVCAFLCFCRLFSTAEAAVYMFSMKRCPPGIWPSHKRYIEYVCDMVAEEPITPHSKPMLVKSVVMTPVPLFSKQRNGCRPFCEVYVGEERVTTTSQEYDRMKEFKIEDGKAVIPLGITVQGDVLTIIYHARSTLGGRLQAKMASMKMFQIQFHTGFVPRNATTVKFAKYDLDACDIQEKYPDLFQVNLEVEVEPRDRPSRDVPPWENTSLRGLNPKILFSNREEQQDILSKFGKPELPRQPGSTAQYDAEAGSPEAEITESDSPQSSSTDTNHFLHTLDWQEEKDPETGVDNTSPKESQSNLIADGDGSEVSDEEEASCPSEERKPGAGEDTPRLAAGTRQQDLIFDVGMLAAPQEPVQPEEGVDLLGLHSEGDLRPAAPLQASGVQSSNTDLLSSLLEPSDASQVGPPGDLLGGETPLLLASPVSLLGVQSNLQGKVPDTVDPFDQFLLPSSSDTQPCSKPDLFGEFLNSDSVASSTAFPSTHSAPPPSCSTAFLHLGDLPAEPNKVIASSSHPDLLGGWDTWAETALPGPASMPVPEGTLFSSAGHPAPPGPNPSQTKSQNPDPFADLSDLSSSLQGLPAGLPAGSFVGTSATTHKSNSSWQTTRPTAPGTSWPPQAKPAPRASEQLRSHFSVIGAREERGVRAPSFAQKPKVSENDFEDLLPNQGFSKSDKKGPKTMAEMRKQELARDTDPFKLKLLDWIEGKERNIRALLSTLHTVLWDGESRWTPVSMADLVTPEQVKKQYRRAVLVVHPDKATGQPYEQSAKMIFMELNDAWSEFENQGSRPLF

Variants of: B1
Conditions: with gak_rat Gak

Variant	effect of a mutation on the interaction
K694A	increasing interaction
I690K	disrupting interaction
